# Results taken from patent publication CN115028713A (JIANGSU DONGKANG BIOMEDICAL TECH CO LTD, dated 2022).
# Target: 重组新冠N蛋白 N-HIS6X (recombinant SARS-CoV-2 N protein with His6 tag) (SARS-CoV-2, UniProt P0DTC9 1-419)
binder,measurement,value
"单克隆抗体OP2 (anti-SARS-CoV-2 N protein monoclonal antibody OP2) (antibody, V domains shown, also called 抗N蛋白的抗体) VH: DVQLVESGGGLVQPGGSRKLSCAASGSTFSNFGMHWVRQAPEKGLEWVAYISSASSIIYYADTVKGRFTISRDNPKNTLFLQMTSLRSEDTAMYYCARSAMDYWGQGTSVTVSS VL: DIVLTQSPASLAVSLGQRATISCKASQSVNYSGDSYMNWFQQKPGQPPKLLIYAASNLESGIPARFSGSGSGTDFTLNIHPVEEEDAATYYCQQSEEQPYTFGGGTKLEIK",EC50,0.0113 µg/mL
